Assay results as given in patent publication US20230242902A1, “A HIGHLY ERROR-PRONE […] R[…] FOR TARGETED CONTINUOUS EVOLUTION IN VIVO” (The Regents of the University of California, priority 2017, published 2023).
Positions count from the first letter of the chain named. Names and notes keep the numbering of the source.

B1: L640A, M779L (protein)
chain: MDYKDKALNDLRNVYADFDSLPLDFRQILIKDRATLLQKEDVEKKILERQEDAKKYAEYLKQSEIPERISLPNIKRHKGVSISFEETSEDMVLEPRPFIFDGLNIRCFRRETIFSLKNKILNMVKESSSFKNVSRQSVSFMYFKIFNKGKVIASTKSVNIYEDKIDERLEDLCNNFDDVLKKIIDVTYGYESLFVSETYSYVIFYAKSIYFPQPRCVNNWGNNIPNILTFDSFKLFTANKNNVSCIKQCSRFLWQKDFNTLEEMIEYKNGNICIVTPQLHINDVRDIKSFNDIRLYSESPIKTFSVIDNTITYLFYFKEHLGVIFNITKSRHDRRVTKFSPLSKFSDVKNITVCFDIESYFDPEKESNQVNIPFICCASIIYNKVIGNIVDFEGRDCVAQMIEYVVDICGELNISSVELIAHNGGGYDFHYILSSMYNPAAIKNILIRNNSFISFNFAHDGVKFSVKDSYSFLLCSLANASKAFLNEETFKKTDFPHHDLKTADDLYKVYKEWSSVNTEINHVVEKEKLLITSEHIVNFTKNDKSKTLIEWSKDYCRNDVLVLSKVWLEFKNAVEDIFNCELVDQTMTLAGLSYKLFQANMPFDVELRHPNKEDYFNMREALIGGRCISVNGIYKDVLCADVKSLYPASMAFYDQPYGSFKRVSSRPKDELGIYYVRVTPNRNNKSNFFPIRSHNKITYNNFEESTYIAWYTNVDIDIGLSEGHNIEYIPFDSYGNIGYSWSKKGKIFEKYIKDVLYKLKIKYEKQNNKVKRNVIKIILNSLWGKFAQKWVNFEYFIKSEDDIDFESEEAYKIWDTDFMLIKKIKESTYSSKPIQNGVFTLSWARYHMKSIWDAGAKEGAECIYSDTDSIFVHKEHFKKNAKFMLNGLKVPIIGSEVGQLELECEFDKLLCAGKKQYMGFYTYFQDGKPCIKEKKRFKGIPSNYIIPELYAHLLSGADKEAKIQFLKFRREWGSVKGYIENKTVKAT
B2: L645M, M779L (protein)
chain: B1 chain with A640L, L645M
B3: I775A, F968T (protein)
chain: B1 chain with A640L, I775A, L779M, F968T
B4: I775A, L900S (protein)
chain: B1 chain with A640L, I775A, L779M, L900S
B5: Y653L, I775A (protein)
chain: B1 chain with A640L, Y653L, I775A, L779M
B6: I777K, K934W (protein)
chain: B1 chain with A640L, I777K, L779M, K934W
B7: L640G, I775A (protein)
chain: B1 chain with A640G, I775A, L779M
B8: L645M, I777K (protein)
chain: B1 chain with A640L, L645M, I777K, L779M
B9: S289K: TP-DNAP1 variant (protein, listed as Kluyveromyces lactis)
chain: B1 chain with S289K, A640L, L779M
B10: I775A, K934W (protein)
chain: B1 chain with A640L, I775A, L779M, K934W
B11: I775A, L909F (protein)
chain: B1 chain with A640L, I775A, L779M, L909F
B12: I775A, F871Y (protein)
chain: B1 chain with A640L, I775A, L779M, F871Y
B13: I777A, K934W (protein)
chain: B1 chain with A640L, I777A, L779M, K934W
B14: L640Y, I777A (protein)
chain: B1 chain with A640Y, I777A, L779M
B15: I777A, V872I (protein)
chain: B1 chain with A640L, I777A, L779M, V872I
B16: I777K, F968T (protein)
chain: B1 chain with A640L, I777K, L779M, F968T
B17: L640G, I777A (protein)
chain: B1 chain with A640G, I777A, L779M
B18: I777K, F968C (protein)
chain: B1 chain with A640L, I777K, L779M, F968C
B19: I777K, W790L, K934W (protein)
chain: B1 chain with A640L, I777K, L779M, W790L, K934W
B20: Y653L, I777A (protein)
chain: B1 chain with A640L, Y653L, I777A, L779M
B21: I777A, L900S (protein)
chain: B1 chain with A640L, I777A, L779M, L900S
B22: V774I, F871Y (protein)
chain: B1 chain with A640L, V774I, L779M, F871Y
B23: I777K, F871Y (protein)
chain: B1 chain with A640L, I777K, L779M, F871Y
B24: I777K, L909F (protein)
chain: B1 chain with A640L, I777K, L779M, L909F
B25: L640G, I777K, W814N (protein)
chain: B1 chain with A640G, I777K, L779M, W814N
B26: I777A, L909F (protein)
chain: B1 chain with A640L, I777A, L779M, L909F
B27: M779L, F968C (protein)
chain: B1 chain with A640L, F968C
B28: Y653L, I777K (protein)
chain: B1 chain with A640L, Y653L, I777K, L779M
B29: I777A, F871Y (protein)
chain: B1 chain with A640L, I777A, L779M, F871Y
B30: I777K, V872I (protein)
chain: B1 chain with A640L, I777K, L779M, V872I
B31: L640N, I777A (protein)
chain: B1 chain with A640N, I777A, L779M
B32: M779L, K934W (protein)
chain: B1 chain with A640L, K934W
B33: F652L, I775A (protein)
chain: B1 chain with A640L, F652L, I775A, L779M

Assays:
p1-encoded leu2 (Q180*) = assay: Large-scale p1 fluctuation tests of p1-encoded leu2 (Q180*), per-base substitution rate; format: cell-based, S. cerevisiae; details: per-base substitution rate, p1-encoded leu2 (Q180*), large-scale fluctuation test
Excerpt: All three TP-DNAP1 libraries were screened through small scale p1 fluctuation tests in a metastable S. cerevisiae strain, OR-Y24. OR-Y24 contains w.t. p1 and recombinant p1 that lacks w.t. TP-DNAP1, and instead, encodes a standardized fluorescence reporter of p1 copy number (Table 1), and a disabled version of the LEU2 selection marker (leu2 (Q180*)). As described previously (Ravikumar et al., 2014), leu2 (Q180*) contains a C→T mutation at base 538 in LEU2 at a site permissive to all single point mutants that generate missense mutations. Reversion to functional LEU2 can be detected on medium lacking leucine.
Large-scale fluctuation tests of p1-encoded leu2 (Q180*) were performed to precisely determine per-base substitution rates for individually cloned or isolated TP-DNAP1 variants. Large-scale p1 fluctuation tests are performed similarly to small-scale p1 fluctuation tests, with several modifications. First, large-scale p1 fluctuation tests were typically performed with 36-48 replicates. For highly error-prone TP-DNAP1s obtained from later rounds of screening, fewer replicates (3-16) were used, which is sufficient for similar precision (Foster et al., 2006). Second, p1 copy number was determined by the flow cytometry method, described below. Third, cell titers were measured for each fluctuation test to estimate the average number of cells per culture. Cell resuspensions were diluted and plated on solid SC-UH medium, and colony counts were determined after incubation at 30° C. for 2-3 days. Alternatively, cell resuspensions were diluted and subject to an event-count measurement via flow cytometry. Fourth, inoculums of highly error-prone TP-DNAP 1 s occasionally contained pre-existing mutants, despite the 1:10,000 dilution, so mutant frequencies were estimated by plating pre-cultures on solid SC-UHLW, pH 5.8 medium. Plates were incubated for 2-3 days, in parallel with cultures grown for fluctuation tests. Pre-culture mutant titers were counted to estimate the number of replicates in the fluctuation test expected to contain pre-existing mutants (n). Revertants were counted from all replicates of the fluctuation tests, counts were sorted, and n replicates with the highest counts were omitted from calculations.
To calculate per-base substitution rates, fluctuation data were analyzed by the maximum likelihood method, implemented using newton.LD.plating in rSalvador 1.7 (Zheng, 2017). Phenotypic mutation rates were calculated by normalizing to the average number of cells per culture. Phenotypic mutation rates were divided by the measured p1 copy number and by the number of ways leu2 (Q180*) can revert to LEU2 (2.33 for the ochre codon) to yield per-base substitution rates. 95% confidence intervals were similarly scaled by these factors. All data related to large-scale p1 fluctuation tests are fully described in Table 2.

p1 = p1 copy number by p1-encoded mKate2 fluorescence; format: cell-based, S. cerevisiae; details: OR-Y24, measured in triplicate
In short: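 Steps: transform TP-DNAP1 variant into OR-Y24; passage until w.t. p1 displaced; dilute 1:10,000 and grow to saturation in triplicate; measure p1-encoded mKate2 fluorescence; convert to copy number via linear qPCR-based calibration. Four high-copy variants were checked directly by qPCR.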

Molecule | Mutation rate (s.p.b.) (p1-encoded leu2 (Q180*)) | Mean fold-increase over w.t. (p1 copy number) (p1) [fold]
B1 | 2.79 × 10^−9 s.p.b. | –
B2 | 4.99 × 10^−9 s.p.b. | –
B3 | 7.29 × 10^−8 s.p.b. | –
B4 | 2.53 × 10^−8 s.p.b. | –
B5 | 9.70 × 10^−9 s.p.b. | –
B6 | 2.71 × 10^−7 s.p.b. | –
B7 | 1.81 × 10^−8 s.p.b. | –
B8 | 9.19 × 10^−9 s.p.b. | –
B9 | – | 2.02
B10 | 3.59 × 10^−8 s.p.b. | –
B11 | 2.46 × 10^−8 s.p.b. | –
B12 | 4.73 × 10^−8 s.p.b. | –
B13 | 1.86 × 10^−7 s.p.b. | –
B14 | 5.70 × 10^−8 s.p.b. | –
B15 | 1.34 × 10^−10 s.p.b. | –
B16 | 3.19 × 10^−7 s.p.b. | –
B17 | 9.28 × 10^−8 s.p.b. | –

Molecule | Mutation rate (s.p.b.) (p1-encoded leu2 (Q180*)) | Mean fold-increase over w.t. (p1 copy number) (p1) [fold]
B18 | 6.67 × 10^−7 s.p.b. | –
B19 | 2.02 × 10^−7 s.p.b. | –
B20 | 2.02 × 10^−8 s.p.b. | –
B21 | 1.36 × 10^−7 s.p.b. | –
B22 | 1.64 × 10^−7 s.p.b. | –
B23 | 1.35 × 10^−6 s.p.b. | –
B24 | 2.22 × 10^−7 s.p.b. | –
B25 | 2.63 × 10^−7 s.p.b. | –
B26 | 1.07 × 10^−7 s.p.b. | –
B27 | 3.13 × 10^−10 s.p.b. | –
B28 | 9.59 × 10^−8 s.p.b. | –
B29 | 2.57 × 10^−7 s.p.b. | –
B30 | 2.59 × 10^−8 s.p.b. | –
B31 | 3.04 × 10^−8 s.p.b. | –
B32 | 2.85 × 10^−9 s.p.b. | –
B33 | 6.08 × 10^−9 s.p.b. | –
